By stoichiometry N is commonly meant a count of units in the complex or per binding partner. For orientation: Kd means the concentration at which binding is half-saturated.

Experimental findings from PMC3623958, “Structural and Functional Role of INI1 and LEDGF in the HIV-1 Preintegration Complex” are described below.

Series [1] concerns the target HIV-1 integrase (full length wild type) (HIV-1). Nature of the series: cross-linking + other: High-Mass MALDI ToF mass spectrometry; purified IN/LEDGF/INI1-IBD complex (formed by dialysis, affinity chromatography and gel filtration) chemically cross-linked before mass spectrometry; linear mode. In general terms: Size exclusion chromatography separates by hydrodynamic size, large species first.

For series [2] the target is unchanged.
Series [3] concerns the target T1, HIV-1 integrase (IN);LEDGF/p75;INI1-IBD (HIV-1;human?;human?, UniProt P04585;O75475;Q12824 1148-1435;1-530;174-289, ||). Description: competition (fluorescence anisotropy); excess over N1; 5 mM Mg2+. Particulars: protein: recombinant;recombinant;recombinant; tags: GST tag on the IN/LEDGF complex cleaved by P3C protease; chain copies: 4;2;2; blunt. (In general: In fluorescence polarisation assays a small probe gives low polarisation when free and higher when bound to something large.)

Series [4] has as its target T2, HIV-1 integrase (IN);LEDGF/p75 (HIV-1;human?, UniProt P04585;O75475 1148-1435;1-530, |). The series is described as above. Particulars: protein: recombinant;recombinant; tags: GST tag on the IN/LEDGF complex cleaved by P3C protease; chain copies: 4;2; blunt.
Series [5] deals with T1, HIV-1 integrase (IN);LEDGF/p75;INI1-IBD. Nature of the series: fluorescence anisotropy; 5 mM Mg2+; 2 DNA duplexes per complex assumed. Particulars: protein: recombinant;recombinant;recombinant; tags: GST tag on the IN/LEDGF complex cleaved by P3C protease; chain copies: 4;2;2; label: 5'-6FAM on strand 1; blunt.
Series [6] has as its target T2, HIV-1 integrase (IN);LEDGF/p75. Described as above. Particulars: protein: recombinant;recombinant; tags: GST tag on the IN/LEDGF complex cleaved by P3C protease; chain copies: 4;2; label: 5'-6FAM on strand 1; blunt.

With “HIV-1 integrase (full length wild type) (enzyme)”, the stoichiometry N in series [1] is 2.

As for “Lens Epithelium-Derived Growth Factor LEDGF/p75 (full length wild type) (from UniProt O75475 1-530) (natural protein)”, the circular full site integration products counted by cloning in bacteria, IN/LEDGF complex against isolated IN, 0.1 to 12.5 µM in IN monomers in series [2] lay in the range of 2 to 10 times.

B1: non-specific DNA 49 bp, unlabeled competitor (dsDNA)
DNA 1: AGTTAAGTGCTGAATTATGATAGTAATCAATATCTACTCCTAACCTCTT
DNA 2: AAGAGGTTAGGAGTAGATATTGATTACTATCATAATTCAGCACTTAACT
Regarding B1, the binding result in series [3] and in series [4] was “no binding” throughout.

B2: U5 vDNA 40 bp, 6FAM (dsDNA)
DNA 1: GACTACGGTTCAAGTCAGCGTGTGGAAAATCTCTAGCAGT
DNA 2: ACTGCTAGAGATTTTCCACACGCTGACTTGAACCGTAGTC
Regarding B2, the values for the Kd in series [5] and in series [6] were 35 ± 4 nM and 10.6 ± 0.5 nM, respectively.
